Assay results reported in patent US20140107315A1.

Experiments:
[1] = target: human immunoglobulin G drug separated from human plasma (Gammagard, Baxter) (human); assay: SPR (Biacore 3000), human IgG immobilized on CM5 chip, ligand as analyte, 25 C, pH 7.4, 1:1 model
[2] = target: human immunoglobulin G drug separated from human plasma (Gammagard, Baxter) (human); assay: SPR (Biacore) as in Example 3, human IgG immobilized on chip, 1:1 model
[3] = target: human IgG (Gamma globulin, Nichiyaku) (human); assay: affinity chromatography, ligand immobilized on HiTrap NHS-activated HP (6.5 mg/mL-gel), 1 mg/mL human IgG at 1.9 mL/min, 5% breakthrough

Substance	Ka [1] [M⁻¹]	Ka [2] [M⁻¹]	5% antibody dBC [3] [mg/mL-gel]
C-K04R/K07R/G29A/K35R/K42R/K49R/K50R/K58G.1d (from pGEX-2T, Example 2) (designed binder)	4.8e+07		
C-K04R/K07R/G29A/K35R/K42R/K49Q/K50R/K58G.1d (designed binder)	3.3e+07		
C-K04R/K07R/G29A/K35R/K42R/K49R/K50R/K58G.1d with Ser-Lys added at the C terminal (Brevibacillus, Example 4) (designed binder)		2.2e+07	25.7
C-K04R/K07E/G29A/K35R/K42R/K49R/K50R/K58G.1d (designed binder)	1.1e+07		
C-K04R/K07D/G29A/K35R/K42R/K49R/K50H/K58G.1d (designed binder)	1.3e+07		
C-K04R/K07E/G29A/K35R/K42R/K49R/K50H/K58G.1d (designed binder)	2.7e+07		
